Test [1] has as its target Human FcγRI (WT) (human) (UniProt P12314). Nature of the test: SPR. (In general: Surface plasmon resonance follows binding to a sensor surface in real time, without labels.)
Test [2] has the same target. Nature of the test: high-speed atomic force microscopy.
Test [3] addresses Trastuzumab ΔP230 (IgG1 with deletion of Pro230 in the lower hinge) (human). Kind of test: SEC. (In general: SEC sorts molecules by how far they enter the pores of the column.)

“And” between values parts separate entries of the source, which are not always exact repeats. Equal values may be shown once.

Here are results for three substances from paper doi:10.1101/2024.05.10.593077.

Chain of UniProt P12314 (P12314 16-292): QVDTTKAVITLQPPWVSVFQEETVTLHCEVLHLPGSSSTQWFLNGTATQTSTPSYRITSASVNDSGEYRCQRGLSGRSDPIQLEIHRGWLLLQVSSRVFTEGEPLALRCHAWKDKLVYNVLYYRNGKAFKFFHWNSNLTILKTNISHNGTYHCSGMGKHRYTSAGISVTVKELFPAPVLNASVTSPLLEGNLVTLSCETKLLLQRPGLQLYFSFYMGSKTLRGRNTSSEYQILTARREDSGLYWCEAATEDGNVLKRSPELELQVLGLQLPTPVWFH

For “Trastuzumab CSCS (IgG1 with the double substitution Cys226Ser and Cys229Ser) (antibody)”, the Kd with Human FcγRI (WT) (human) [1] worked out at 0.92 nM.

Regarding “Trastuzumab WT, anti-HER2 humanized IgG1 (antibody)”, the stoichiometry N (IgG1 WT:FcγRI) with Human FcγRI (WT) (human) [2] stood at 1. This substance also gave a Kd with Human FcγRI (WT) (human) [1] of 0.89 nM.

Take “Trastuzumab ΔP230 (IgG1 with deletion of Pro230 in the lower hinge) (antibody)”: the stoichiometry N (ΔP230:FcγRI (mol:mol)) in the test with Human FcγRI (WT) (human) [2] is 1 and 2. Further, the Kd with Human FcγRI (WT) (human) [1] was found to be 23.5 nM. Also, the ratio monomer:dimer (monomer:dimer) in test [3] is 6.

The Kd is the free concentration of one partner at which half of the binding sites on the other are occupied at equilibrium, for simple one-to-one binding. Low readings indicate a tighter complex, high ones a looser complex.
